# T1: GB-yeIF5-B6 (S. cerevisiae, UniProt P38431 241-405)
# T1 sequence (looked up): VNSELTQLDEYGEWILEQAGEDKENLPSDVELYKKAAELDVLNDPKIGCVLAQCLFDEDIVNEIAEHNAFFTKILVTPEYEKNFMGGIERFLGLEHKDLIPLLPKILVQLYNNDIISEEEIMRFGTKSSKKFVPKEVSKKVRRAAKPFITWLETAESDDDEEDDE
# Target: T1, GB-yeIF5-B6
# Assay: pull-down
binder,measurement,value
"GST-yeIF1A ΔC (lacking aa. 108-153) (domain or fragment, S. cerevisiae, UniProt P38912 1-107, looked up) MGKKNTKGGKKGRRGKNDSDGPKRELIYKEEGQEYAQITKMLGNGRVEASCFDGNKRMAHIRGKLRKKVWMGQGDIILVSLRDFQDDQCDVVHKYNLDEARTLKNQG",binding result,binds

# Source: PMC3917153 (Biochemistry, 2013)
